B1: CPEB3 Ribozyme (parent)
chain: GGGGGCCACAGCAGAAGCGUUCACGUCGCGGCCCCUGUCAGAUUCUGGUGAAUCUGCGAAUUCUGCUGU

Variants of: B1
Test: self-cleavage, relative activity (ratio to wild type); higher = more cleavage; co-transcriptional

Going from GUGGGCCACAGCAGAAGCGUUCACGUCGCGGCCGCUGUCAGAUUCUGGUGAAUCUGCGAAUUCUGCUGU to GUGGGCCACAGCAGAAGCGUUCACGUCGCGGCCACUGUCAGAUUCUGGUGAAUCUGCGAAUUCUGCUGU, the self-cleavage rises from 0.0441 to 0.0756.

Going from GUGGGCCACAGCAGAAGCGUUCACGUCGCGGCCCCUGUCAGAUUCUUGUGAAUCUGCGAAUUCUGCUGU to GUGGGCCACAGCAGAAGCGUUCACGUCGCGGCCCCUGUCAGAUUCUCGUGAAUCUGCGAAUUCUGCUGU, the self-cleavage rises from 0.059 to 0.0826.

Compared with GUGGGCCACAGCAGAAGCGUGCACGUCGCGGCCCCUGUCAGAUUCUGGUGAAUCUGCGAAUUCUGCUGU, GUGGGCCACAGCAGAAGCGUACACGUCGCGGCCCCUGUCAGAUUCUGGUGAAUCUGCGAAUUCUGCUGU is higher in self-cleavage: 0.0462 for the first, 0.0838 for the second.

Compared with GUGUGCCACAGCAGAAGCGUUCACGUCGCGGCCCCUGUCAGAUUCUGGUGAAUCUGCGAAUUCUGCUGU, GUGCGCCACAGCAGAAGCGUUCACGUCGCGGCCCCUGUCAGAUUCUGGUGAAUCUGCGAAUUCUGCUGU is lower in self-cleavage: 0.0539 for the first, 0.0426 for the second.

First: GUGGGCCACAGCAGAAGCGUUAACGUCGCGGCCCCUGUCAGAUUCUGGUGAAUCUGCGAAUUCUGCUGU
Second: GUGGGCCACAGCAGAAGCGUUUACGUCGCGGCCCCUGUCAGAUUCUGGUGAAUCUGCGAAUUCUGCUGU
The self-cleavage of the first is lower: 0.0323 for the first, 0.039 for the second.

First: GUGGGCCACAGCAGAAGCGUUGACGUCGCGGCCCCUGUCAGAUUCUGGUGAAUCUGCGAAUUCUGCUGU
Second: GUGGGCCACAGCAGAAGCGUUCACGUUGCGGCCCCUGUCAGAUUCUGGUGAAUCUGCGAAUUCUGCUGU
The self-cleavage of the first is higher: 0.039 for the first, 0.0348 for the second.

Going from GUGGGCCACAGCAGAAGCGUUCACGUGGCGGCCCCUGUCAGAUUCUGGUGAAUCUGCGAAUUCUGCUGU to GUGGGCCACAGCACAAGCGUUCACGUCGCGGCCCCUGUCAGAUUCUGGUGAAUCUGCGAAUUCUGCUGU, the self-cleavage rises from 0.0366 to 0.0522.

Compared with GUGGGCCACAGCAUAAGCGUUCACGUCGCGGCCCCUGUCAGAUUCUGGUGAAUCUGCGAAUUCUGCUGU, GUGGGCCACAGCAGAAGCGUUCACGGCGCGGCCCCUGUCAGAUUCUGGUGAAUCUGCGAAUUCUGCUGU is lower in self-cleavage: 0.0888 for the first, 0.0848 for the second.

First: GUGGGCCACAGCAGAAGCGUUCACGUCGCGGCCCCUGUCAGAUUCUGGUGAAUCUGGGAAUUCUGCUGU
Second: GUGGGCCACAGCAGAAGCGUUCACGUCGCGGCCCCUGUCAGAUUCUGGUGAAUCUGAGAAUUCUGCUGU
The self-cleavage of the first is lower: 0.0241 for the first, 0.0471 for the second.

Going from GUGGGCCACAGCAGAAGCGUUCACGUCGCUGCCCCUGUCAGAUUCUGGUGAAUCUGCGAAUUCUGCUGU to GUGGGCCACAGCAGAAACGUUCACGUCGCGGCCCCUGUCAGAUUCUGGUGAAUCUGCGAAUUCUGCUGU, the self-cleavage rises from 0.0322 to 0.0534.

First: GUGGGCCACAGCAGAAGCGUUCACGUCGGGGCCCCUGUCAGAUUCUGGUGAAUCUGCGAAUUCUGCUGU
Second: GUGGGCCACAGCAGAAGCGUUCACGUCGAGGCCCCUGUCAGAUUCUGGUGAAUCUGCGAAUUCUGCUGU
The self-cleavage of the first is lower: 0.0442 for the first, 0.0519 for the second.

First: GUGGGCCACAGCAGAAGCGUUCACGUCGCGGCCCCUGGCAGAUUCUGGUGAAUCUGCGAAUUCUGCUGU
Second: GUGGGCCACAGCAGAAGCGUUCACGUCGCGGCCCCAGUCAGAUUCUGGUGAAUCUGCGAAUUCUGCUGU
The self-cleavage of the first is higher: 0.0441 for the first, 0.023 for the second.

Going from GUGGGCCACAGCAGAAGCGUUCACGUCGCGGCCCCCGUCAGAUUCUGGUGAAUCUGCGAAUUCUGCUGU to GUGGGCCACAGCAGAAGCGUUCACGUCGCGGCCCCUGUAAGAUUCUGGUGAAUCUGCGAAUUCUGCUGU, the self-cleavage falls from 0.0828 to 0.0535.

Going from GUGGGCCACAGCAGAAGCGUUCACGUCGCGGCCCCUGUGAGAUUCUGGUGAAUCUGCGAAUUCUGCUGU to GUGGGCCACAGCAGAAGCGUUCACGUCGCGGCCCCUGUUAGAUUCUGGUGAAUCUGCGAAUUCUGCUGU, the self-cleavage rises from 0.045 to 0.0814.

Compared with GUGGGCCACAGCAGAAGCGUUCACGUCGCGGCCCCUGUCAGAUUCUGGUGAAUCUUCGAAUUCUGCUGU, GUGGGCCACAGCAGAAGCGUUCACGUCGCGGCCCCUGUCAGAUUCUGGUGAAUCUACGAAUUCUGCUGU is higher in self-cleavage: 0.0789 for the first, 0.0814 for the second.

Going from GUGGGCCACAGCAGAAGCGUUCACGUCGCGGCCCCUGUCAGAUUCUGGUGAAUCUCCGAAUUCUGCUGU to GUGGGCCACAGCAGAAGCGUUCACGUCGCGGCCCCUGUCAGAUUCUGGUGAAUCUGCGAAUUCUGGUGU, the self-cleavage rises from 0.0334 to 0.0712.

First: GUGGGCCACAGCAGAAGCGUUCACGUCGCGGCCCCUGUCAGAUUCUGGUGAAUCUGCAAAUUCUGCUGU
Second: GUGGGCCACAGCAGAAGCGUUCACGUCGCGGCCCCUGUCAGAUUCUGGUGAAUCUGCCAAUUCUGCUGU
The self-cleavage of the first is lower: 0.0612 for the first, 0.0697 for the second.

Going from GUGGGCCACAGCAGAAGCGUUCACGUCGCGGCCCCUGUCAGAUUCUGGUGAAUCUGCUAAUUCUGCUGU to GUGGGCCACAGCAGAAGCGUUCACGUCGCGGCCCCUGUCAGAUUCUGGUGAAUCUGCGAAUUCUUCUGU, the self-cleavage falls from 0.0822 to 0.0743.

Going from GUGGGCCACAGCAGAAGCGUUCACGUCGCGGCCCCUGUCAGAUUCUGGUGAAUCUGCGAAUUCUCCUGU to GUGGGCCACAGCAGAAGCUUUCACGUCGCGGCCCCUGUCAGAUUCUGGUGAAUCUGCGAAUUCUGCUGU, the self-cleavage rises from 0.0564 to 0.0651.

Compared with GUGGGCCACAGCAGAAGCAUUCACGUCGCGGCCCCUGUCAGAUUCUGGUGAAUCUGCGAAUUCUGCUGU, GUGGGCCACAGCAGAAGCCUUCACGUCGCGGCCCCUGUCAGAUUCUGGUGAAUCUGCGAAUUCUGCUGU is lower in self-cleavage: 0.0693 for the first, 0.0206 for the second.

First: GUGGGCCACAGCAGAAGCGUUCACGUCGCGGCCCCUGUCAAAUUCUGGUGAAUCUGCGAAUUCUGCUGU
Second: GUGGGCCACAGCAGAAGCGUUCACGUCGCGGCCCCUGUCAGAUUCUGGUUAAUCUGCGAAUUCUGCUGU
The self-cleavage of the first is lower: 0.0653 for the first, 0.0728 for the second.

Compared with GUGGGCCACAGCAGAAGCGUUCACGUCGCGGCCCCUGUCAGAUUCUGGUCAAUCUGCGAAUUCUGCUGU, GUGGGCCACAGCAGAAGCGUUCACGUCGCGGCCCCUGUCAGAUUCUGAUGAAUCUGCGAAUUCUGCUGU is higher in self-cleavage: 0.0712 for the first, 0.0985 for the second.

Going from GUGGGCCACAGCAGAAGCGUUCACGUCGCGGCCCCUGUCAGAUUCUGUUGAAUCUGCGAAUUCUGCUGU to GUCGGCCACAGCAGAAGCGUUCACGUCGCGGCCCCUGUCAGAUUCUGGUGAAUCUGCGAAUUCUGCUGU, the self-cleavage rises from 0.0675 to 0.0704.

First: GUAGGCCACAGCAGAAGCGUUCACGUCGCGGCCCCUGUCAGAUUCUGGUGAAUCUGCGAAUUCUGCUGU
Second: GUGGGCCACAGCAGAAGCGUUCACGUCGCGGCACCUGUCAGAUUCUGGUGAAUCUGCGAAUUCUGCUGU
The self-cleavage of the first is lower: 0.0298 for the first, 0.0922 for the second.

Going from GUGGGCCACAGCAGAAGCGUUCACGUCGCGGCUCCUGUCAGAUUCUGGUGAAUCUGCGAAUUCUGCUGU to GUGGGCCACAGCAGAAGCGUUCACGUCGCGGCGCCUGUCAGAUUCUGGUGAAUCUGCGAAUUCUGCUGU, the self-cleavage falls from 0.117 to 0.066.

First: GUGGUCCACAGCAGAAGCGUUCACGUCGCGGCCCCUGUCAGAUUCUGGUGAAUCUGCGAAUUCUGCUGU
Second: GUGGGCCACAGCAGAAGCGUUCACGUCGCGGCCCCUAUCAGAUUCUGGUGAAUCUGCGAAUUCUGCUGU
The self-cleavage of the first is higher: 0.0421 for the first, 0.0373 for the second.

Compared with GUGGGCCACAGCAGAAGCGUUCACGUCGCGGCCCCUUUCAGAUUCUGGUGAAUCUGCGAAUUCUGCUGU, GUGGGCCACAGCAGAAGCGUUCACGUCGCGUCCCCUGUCAGAUUCUGGUGAAUCUGCGAAUUCUGCUGU is higher in self-cleavage: 0.0465 for the first, 0.0654 for the second.

First: GUGGGCCACAGCAGAAGCGUUCACGUCGCGCCCCCUGUCAGAUUCUGGUGAAUCUGCGAAUUCUGCUGU
Second: GUGGGCCACAGCAGAAGCGUUCAAGUCGCGGCCCCUGUCAGAUUCUGGUGAAUCUGCGAAUUCUGCUGU
The self-cleavage of the first is lower: 0.061 for the first, 0.0672 for the second.

Going from GUGGGCCACAGCAGAAGCGUUCAUGUCGCGGCCCCUGUCAGAUUCUGGUGAAUCUGCGAAUUCUGCUGU to GUGGGCCACAGCAGAAGCGUUCAGGUCGCGGCCCCUGUCAGAUUCUGGUGAAUCUGCGAAUUCUGCUGU, the self-cleavage rises from 0.038 to 0.0682.

First: GUGGGCCACAUCAGAAGCGUUCACGUCGCGGCCCCUGUCAGAUUCUGGUGAAUCUGCGAAUUCUGCUGU
Second: GUGGGCCACAACAGAAGCGUUCACGUCGCGGCCCCUGUCAGAUUCUGGUGAAUCUGCGAAUUCUGCUGU
The self-cleavage of the first is higher: 0.0835 for the first, 0.049 for the second.

First: GUGGGCCACAGCAGAAGCGUUCACGUCGCGGGCCCUGUCAGAUUCUGGUGAAUCUGCGAAUUCUGCUGU
Second: GUGGGCCACAGCAGAAGCGUUCACGUCGCGGUCCCUGUCAGAUUCUGGUGAAUCUGCGAAUUCUGCUGU
The self-cleavage of the first is lower: 0.0483 for the first, 0.113 for the second.

Compared with GUGGGCCACAGCAGAAGCGUUCACGUCACGGCCCCUGUCAGAUUCUGGUGAAUCUGCGAAUUCUGCUGU, GUGGGCCACAGCAGAAGCGUUCACGUCCCGGCCCCUGUCAGAUUCUGGUGAAUCUGCGAAUUCUGCUGU is lower in self-cleavage: 0.0437 for the first, 0.0331 for the second.

Going from GUGGGCCACAGCAGAAGCGUUCACUUCGCGGCCCCUGUCAGAUUCUGGUGAAUCUGCGAAUUCUGCUGU to GUGGGCCACAGCAGAAGCGUUCACAUCGCGGCCCCUGUCAGAUUCUGGUGAAUCUGCGAAUUCUGCUGU, the self-cleavage rises from 0.0175 to 0.0393.

Going from GUGGGCCACAGCAGAAGCGUUCACCUCGCGGCCCCUGUCAGAUUCUGGUGAAUCUGCGAAUUCUGCUGU to GUGGGCCACAGCAGAAGCGGUCACGUCGCGGCCCCUGUCAGAUUCUGGUGAAUCUGCGAAUUCUGCUGU, the self-cleavage rises from 0.0157 to 0.0171.

Going from GUGGGCCACAGCAGAAGCGCUCACGUCGCGGCCCCUGUCAGAUUCUGGUGAAUCUGCGAAUUCUGCUGU to GUGGGCCACAGCAGAAGCGUUCACGUCGCGGCCCAUGUCAGAUUCUGGUGAAUCUGCGAAUUCUGCUGU, the self-cleavage rises from 0.0329 to 0.256.

Compared with GUGGGCCACAGCAGAAGCGUUCACGUCGCGGCCCCUGUCAGAUUGUGGUGAAUCUGCGAAUUCUGCUGU, GUGGGCCACAGCAGAAGCGUUCACGUCGCGGCCCCUGUCAGAUUUUGGUGAAUCUGCGAAUUCUGCUGU is higher in self-cleavage: 0.0316 for the first, 0.102 for the second.

Compared with GUGGGCCACAGCAGAAGCGUUCACGUCGCGGCCCCUGUCAGAUUAUGGUGAAUCUGCGAAUUCUGCUGU, GUGGGCCACAGCAGAAGCGUUCACGUCGCGGCCCCUGUCAGAUUCUGGUGAAUUUGCGAAUUCUGCUGU is lower in self-cleavage: 0.0935 for the first, 0.0892 for the second.

Compared with GUGGGCCACAGCAGAAGCGUUCACGUCGCGGCCCCUGUCAGAUUCUGGUGAAUGUGCGAAUUCUGCUGU, GUGGGCCACAGCAGAAGCGUUCACGUCGCGGCCCCUGUCAGAUUCUGGUGAAUCUGCGAAUUCUGCUAU is higher in self-cleavage: 0.0751 for the first, 0.128 for the second.

Going from GUGGGCCACAGCAGAAGCGUUCACGUCGCGGCCCCUGUCAGAUUCUGGUGAAUCUGCGAAUUCUGCUUU to GUGGGCCACAGCAGAAGCGUUCACGUCGCGGCCCCUGUCAGAUUCUGGUGAAUCUGCGAAUUCUGCUCU, the self-cleavage falls from 0.106 to 0.1.

Reference: the RNAGym collection of RNA variant scans (doi:10.7554/elife.80360)
